Experimental data reported in PMC4176161 (Nucleic Acids Research, 2014).
Where two headings read alike, the source gives them in different places.

B1: …1 (SEP1) (natural protein)
chain: MGRGRVELKRIENKINRQVTFAKRRNGLLKKAYELSVLCDAEVALIIFSNRGKLYEFCSSSNMLKTLDRYQKCSYGSIEVNNKPAKELENSYREYLKLKGRYENLQRQQRNLLGEDLGPLNSKELEQLERQLDGSLKQVRSIKTQYMLDQLSDLQNKEQMLLETNRALAMKLDDMIGVRSHHMGGGGGWEGGEQNVTYAHHQAQSQGLYQPLECNPTLQMGYDNPVCSEQITATTQAQAQQGNGYIPGWML
B2: …4 (SEP4) (natural protein)
chain: MGRGKVELKRIENKINRQVTFAKRRNGLLKKAYELSVLCDAEIALLIFSNRGKLYEFCSSPSGMARTVDKYRKHSYATMDPNQSAKDLQDKYQDYLKLKSRVEILQHSQRHLLGEELSEMDVNELEHLERQVDASLRQIRSTKARSMLDQLSDLKTKEEMLLETNRDLRRKLEDSDAALTQSFWGSSAAEQQQQHQQQQQGMSSYQSNPPIQEAGFFKPLQGNVALQMSSHYNHNPANATNSATTSQNVNGFFPGWMV
B3: …2 (SEP2) (natural protein)
chain: not shown

Experiments:
native gel or EMSA [1] = target: the molecule itself; assay: native gel or EMSA
native gel or EMSA [2] = target: the molecule itself; assay: native gel or EMSA; remark: listed apart in the source

Protein	stoichiometry N (native gel or EMSA [1])	stoichiometry N (native gel or EMSA [2])
B1	2	4
B2	2	4
B3	2	4
